Source: PMC4209800

What was measured:
[1] = biological target: human FcγRIIIa of allotype 158F, GPI-anchored (human) (UniProt P08637); test: flow cytometry on cells; IgG pre-complexed with equimolar goat F(ab')2 against its light chain (anti-κ for Fog-1, anti-λ for B2), on CHO cells expressing a single human FcγRII or FcγRIII; complexes detected with FITC anti-goat IgG; mean fluorescence of ≥12 000 cells
[2] = biological target: human FcγRIIIa of allotype 158V, GPI-anchored (human); test: as above

Chain of UniProt P08637 (P08637 17-254): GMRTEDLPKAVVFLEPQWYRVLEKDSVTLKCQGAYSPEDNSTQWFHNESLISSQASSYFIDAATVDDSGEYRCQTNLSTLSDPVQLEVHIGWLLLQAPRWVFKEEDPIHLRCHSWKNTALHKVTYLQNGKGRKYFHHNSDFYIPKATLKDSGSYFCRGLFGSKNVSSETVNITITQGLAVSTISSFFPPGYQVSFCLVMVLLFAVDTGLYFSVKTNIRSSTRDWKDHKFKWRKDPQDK

fold lower binding than G1 [1]: 100 fold | fold lower binding than G1 [2]: 50 fold
Substance: B2 G1Δnab (antibody)
